The supplement of paper PMC6757056
± gives the standard deviation of the averaged measurements.

B1: library; a variant is named by its letters at N, in order (parent)
chain: GCUGUCACCGAGAAACUGUGAAGUAUAUCUUAAACCUGGGCACUUAAAAGAUAUAUGGAGUUAGUAGUGCAACCUGCUCGGUCUGAUGAGUCCNNNNNNGGACGAAACAGC

Key:
cyclic di-GMP [1] = variants of: B1; assay: FACS-Seq fitted mean relative fluorescence mCherry/BFP without ligand (log10 relative fluorescence); HEK293T; ligand: cyclic di-GMP (c-di-GMP-II aptamer); higher = higher reporter protein expression; details: ligand present: no
Procedure, shortened: (§1)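 HEK293T libraries were lentivirally transduced with an mCherry reporter carrying the ribozyme switch and an EF1α-BFP marker, enriched, and incubated for 48 h with or without ligand before sorting into 6 bins by mCherry/BFP. Genomic DNA from each bin was PCR-amplified, barcoded and sequenced on MiSeq. Fluorescence is the fitted normal mean of the bin counts. The fit used log10(mCherry/BFP), and means were scaled to five spiked-in control ribozymes.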

cyclic di-GMP [2] = variants of: B1; assay: normalized RNA/DNA level without ligand (relative to sTRSVctl = 100) (log10 (% of sTRSVctl)); HEK293T; ligand: cyclic di-GMP (c-di-GMP-II aptamer); higher = less ribozyme self-cleavage, higher mRNA level; details: reporter: mCherry (pCS4076), ligand present: no
Procedure, shortened: (§2)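 RNA level was computed as RNA reads over DNA reads divided by a spiked-in non-cleaving sequence or by the top sequences, then scaled and log-transformed. Scaling was ×100 with log10, the top group was 25 sequences, and the threshold was ≥100 DNA reads. The reads came from HEK293T cells transfected at 4 µg per 6-well well with ribozyme switch library plasmids (mCherry, or eGFP in some ligand experiments). Total RNA was extracted with EDTA 72 h after transfection, with any ligand added 1 h before it.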

cyclic di-GMP [3] = variants of: B1; assay: FACS-Seq fitted mean relative fluorescence mCherry/BFP with ligand (log10 relative fluorescence); HEK293T; ligand: cyclic di-GMP (c-di-GMP-II aptamer); ligand concentration (+) FACS-Seq: 1 mM; higher = higher reporter protein expression; details: ligand present: yes
Procedure, shortened: as §1

cyclic di-GMP [4] = variants of: B1; assay: normalized RNA/DNA level with ligand (relative to sTRSVctl = 100) (log10 (% of sTRSVctl)); HEK293T; ligand: cyclic di-GMP (c-di-GMP-II aptamer); ligand concentration (+) RNA-Seq: 1 mM; higher = less ribozyme self-cleavage, higher mRNA level; details: reporter: mCherry (pCS4076), ligand present: yes
Procedure, shortened: as §2

For AUACAU, the “FACS-Seq fitted mean (log10)” value (cyclic di-GMP [1]) was -0.192 ± 0.015, the “normalized RNA/DNA level without ligand (log10)” value (cyclic di-GMP [2]) was 1.62 ± 0.062 and the “FACS-Seq fitted mean (log10)” value (cyclic di-GMP [3]) was 0.241 ± 0.0042. The “normalized RNA/DNA level with ligand (log10)” value (cyclic di-GMP [4]) was 1.78 ± 0.074.

For CUACGA, the “FACS-Seq fitted mean (log10)” value (cyclic di-GMP [1]) was -0.199 ± 0.061, the “normalized RNA/DNA level without ligand (log10)” value (cyclic di-GMP [2]) was 1.62 ± 0.038 and the “FACS-Seq fitted mean (log10)” value (cyclic di-GMP [3]) was 0.0797 ± 0.066. For the same variant, the “normalized RNA/DNA level with ligand (log10)” value (cyclic di-GMP [4]) was 1.79 ± 0.086.

For CUCGAA, the “FACS-Seq fitted mean (log10)” value (cyclic di-GMP [1]) was -0.00262 ± 0.0023, the “normalized RNA/DNA level without ligand (log10)” value (cyclic di-GMP [2]) was 1.41 ± 0.12 and the “FACS-Seq fitted mean (log10)” value (cyclic di-GMP [3]) was 0.32 ± 0.035. For the same variant, the “normalized RNA/DNA level with ligand (log10)” value (cyclic di-GMP [4]) was 1.6 ± 0.097.

In the case of CUCGGA, the “FACS-Seq fitted mean (log10)” value (cyclic di-GMP [1]) is reported as -0.14 ± 0.19, the “normalized RNA/DNA level without ligand (log10)” value (cyclic di-GMP [2]) is reported as 1.58 ± 0.076 and the “FACS-Seq fitted mean (log10)” value (cyclic di-GMP [3]) is reported as 0.203 ± 0.14. For the same variant, the “normalized RNA/DNA level with ligand (log10)” value (cyclic di-GMP [4]) was 1.81 ± 0.14.

With AUCCUG the “FACS-Seq fitted mean (log10)” value (cyclic di-GMP [1]) was -0.263 ± 0.061, the “normalized RNA/DNA level without ligand (log10)” value (cyclic di-GMP [2]) was 1.67 ± 0.017 and the “FACS-Seq fitted mean (log10)” value (cyclic di-GMP [3]) was -0.151 ± 0.016. The “normalized RNA/DNA level with ligand (log10)” value (cyclic di-GMP [4]) was 1.78 ± 0.13.

GUCAAA was tested, and the “FACS-Seq fitted mean (log10)” value (cyclic di-GMP [1]) was -0.258 ± 0.074, the “normalized RNA/DNA level without ligand (log10)” value (cyclic di-GMP [2]) was 1.56 ± 0.036 and the “FACS-Seq fitted mean (log10)” value (cyclic di-GMP [3]) was 0.0433 ± 0.047. For the same variant, the “normalized RNA/DNA level with ligand (log10)” value (cyclic di-GMP [4]) was 1.73 ± 0.095.

GUCAAU was tested, and the “FACS-Seq fitted mean (log10)” value (cyclic di-GMP [1]) was -0.201 ± 0.12, the “normalized RNA/DNA level without ligand (log10)” value (cyclic di-GMP [2]) was 1.63 ± 0.034 and the “FACS-Seq fitted mean (log10)” value (cyclic di-GMP [3]) was 0.152 ± 0.028. For the same variant, the “normalized RNA/DNA level with ligand (log10)” value (cyclic di-GMP [4]) was 1.78 ± 0.087.

CGUUUA was tested, and the “FACS-Seq fitted mean (log10)” value (cyclic di-GMP [1]) was -0.544 ± 0.037, the “normalized RNA/DNA level without ligand (log10)” value (cyclic di-GMP [2]) was 1.32 ± 0.077 and the “FACS-Seq fitted mean (log10)” value (cyclic di-GMP [3]) was -0.288 ± 0.098. For the same variant, the “normalized RNA/DNA level with ligand (log10)” value (cyclic di-GMP [4]) was 1.46 ± 0.064.

With CGUUUU the “FACS-Seq fitted mean (log10)” value (cyclic di-GMP [1]) was -0.597 ± 0.085, the “normalized RNA/DNA level without ligand (log10)” value (cyclic di-GMP [2]) was 1.46 ± 0.052 and the “FACS-Seq fitted mean (log10)” value (cyclic di-GMP [3]) was -0.329 ± 0.11. The “normalized RNA/DNA level with ligand (log10)” value (cyclic di-GMP [4]) was 1.61 ± 0.098.

UUAAUG was tested, and the “FACS-Seq fitted mean (log10)” value (cyclic di-GMP [1]) was -0.155 ± 0.022, the “normalized RNA/DNA level without ligand (log10)” value (cyclic di-GMP [2]) was 1.6 ± 0.035 and the “FACS-Seq fitted mean (log10)” value (cyclic di-GMP [3]) was 0.183 ± 0.0019. The “normalized RNA/DNA level with ligand (log10)” value (cyclic di-GMP [4]) was 1.79 ± 0.071.

In the case of GUAACG, the “FACS-Seq fitted mean (log10)” value (cyclic di-GMP [1]) is reported as -0.145 ± 0.033, the “normalized RNA/DNA level without ligand (log10)” value (cyclic di-GMP [2]) is reported as 1.678 ± 0.014 and the “FACS-Seq fitted mean (log10)” value (cyclic di-GMP [3]) is reported as 0.124 ± 0.056. For the same variant, the “normalized RNA/DNA level with ligand (log10)” value (cyclic di-GMP [4]) was 1.78 ± 0.14.

For UGUUGA, the “FACS-Seq fitted mean (log10)” value (cyclic di-GMP [1]) was -0.163 ± 0.015, the “normalized RNA/DNA level without ligand (log10)” value (cyclic di-GMP [2]) was 1.6 ± 0.041 and the “FACS-Seq fitted mean (log10)” value (cyclic di-GMP [3]) was -0.0478 ± 0.051. For the same variant, the “normalized RNA/DNA level with ligand (log10)” value (cyclic di-GMP [4]) was 1.78 ± 0.12.

In the case of AGUUAG, the “FACS-Seq fitted mean (log10)” value (cyclic di-GMP [1]) is reported as -0.315 ± 0.053, the “normalized RNA/DNA level without ligand (log10)” value (cyclic di-GMP [2]) is reported as 1.54 ± 0.059 and the “FACS-Seq fitted mean (log10)” value (cyclic di-GMP [3]) is reported as -0.0278 ± 0.059. For the same variant, the “normalized RNA/DNA level with ligand (log10)” value (cyclic di-GMP [4]) was 1.75 ± 0.11.

UGUGAU was tested, and the “FACS-Seq fitted mean (log10)” value (cyclic di-GMP [1]) was -0.736 ± 0.12, the “normalized RNA/DNA level without ligand (log10)” value (cyclic di-GMP [2]) was 1.676 ± 0.012 and the “FACS-Seq fitted mean (log10)” value (cyclic di-GMP [3]) was -0.5759 ± 0.0014. For the same variant, the “normalized RNA/DNA level with ligand (log10)” value (cyclic di-GMP [4]) was 1.81 ± 0.13.

With UGUGAC the “FACS-Seq fitted mean (log10)” value (cyclic di-GMP [1]) was 0.123 ± 0.24, the “normalized RNA/DNA level without ligand (log10)” value (cyclic di-GMP [2]) was 1.644 ± 0.015 and the “FACS-Seq fitted mean (log10)” value (cyclic di-GMP [3]) was 0.27 ± 0.01. The “normalized RNA/DNA level with ligand (log10)” value (cyclic di-GMP [4]) was 1.79 ± 0.082.

For GUAUGA, the “FACS-Seq fitted mean (log10)” value (cyclic di-GMP [1]) was -0.487 ± 0.16, the “normalized RNA/DNA level without ligand (log10)” value (cyclic di-GMP [2]) was 1.42 ± 0.092 and the “FACS-Seq fitted mean (log10)” value (cyclic di-GMP [3]) was -0.189 ± 0.072. The “normalized RNA/DNA level with ligand (log10)” value (cyclic di-GMP [4]) was 1.67 ± 0.081.

In the case of GUCACU, the “FACS-Seq fitted mean (log10)” value (cyclic di-GMP [1]) is reported as -0.159 ± 0.13, the “normalized RNA/DNA level without ligand (log10)” value (cyclic di-GMP [2]) is reported as 1.708 ± 0.0022 and the “FACS-Seq fitted mean (log10)” value (cyclic di-GMP [3]) is reported as 0.131 ± 0.035. For the same variant, the “normalized RNA/DNA level with ligand (log10)” value (cyclic di-GMP [4]) was 1.85 ± 0.08.

With GUCACG the “FACS-Seq fitted mean (log10)” value (cyclic di-GMP [1]) was -0.35 ± 0.017, the “normalized RNA/DNA level without ligand (log10)” value (cyclic di-GMP [2]) was 1.64 ± 0.028 and the “FACS-Seq fitted mean (log10)” value (cyclic di-GMP [3]) was -0.131 ± 0.21. For the same variant, the “normalized RNA/DNA level with ligand (log10)” value (cyclic di-GMP [4]) was 1.84 ± 0.085.
